The text below walks through data of article PMC2532734.

Experiment in all cases: NMR 15N-HSQC titration
Data set [1] concerns the target T1, KSRP KH3 (UniProt Q92945 323-418).
T1 sequence: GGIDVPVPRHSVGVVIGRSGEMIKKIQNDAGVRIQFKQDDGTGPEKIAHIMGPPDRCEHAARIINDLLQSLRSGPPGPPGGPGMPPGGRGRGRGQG

The target of data set [2] is T1, KSRP KH3. The source holds these as a separate data set.
A further data set has as its target T2, KSRP KH1 (UniProt Q92945 130-218).
T2 sequence: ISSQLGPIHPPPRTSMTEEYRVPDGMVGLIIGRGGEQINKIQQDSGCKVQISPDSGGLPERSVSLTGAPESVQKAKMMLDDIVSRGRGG

Data set [3] concerns the target T1, KSRP KH3. The source holds these as a separate data set.
Another data set concerns the target T3, KSRP KH4 (UniProt Q92945 423-525).
T3 sequence: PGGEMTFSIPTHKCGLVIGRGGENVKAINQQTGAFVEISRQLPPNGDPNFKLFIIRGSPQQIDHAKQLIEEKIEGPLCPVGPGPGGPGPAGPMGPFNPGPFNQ

The target in another data set is T4, KSRP KH2 (UniProt Q92945 233-305).
T4 sequence: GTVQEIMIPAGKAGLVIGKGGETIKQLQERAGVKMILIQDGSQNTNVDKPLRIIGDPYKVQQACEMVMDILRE

B1: UAGGUU (UAGGUA in Fig 4b legend) (ssRNA)
RNA: UAGGUU
In turn, B1 showed a Kd with KSRP KH3 [1] of 6 ± 2 µM.

B2: UAUUAU (ssRNA)
RNA: UAUUAU
For the molecule B2, the binding signal with KSRP KH3 [2] was approximately 100 fold weaker than UGGGU.

B3: UAGUAU (ssRNA)
RNA: UAGUAU
The molecule B3 registered a Kd with KSRP KH3 [1] of 26 ± 5 µM.

B4: uCCCC (ssRNA)
RNA: UCCCC
As for B4, the binding result with KSRP KH1, in the data set with KSRP KH3 [3], with KSRP KH4 and in the data set with KSRP KH2 was “no binding” in each case.

One may read the Kd as the constant that tells how readily two partners part at equilibrium. A high value points to weaker binding.
